The experiment addresses T1, single-chain mouse Trp2/H2-K^b (scpMHC), biotinylated (mouse | not stated).
T1 chain 1: SVYDFFVWL
T1 chain 2: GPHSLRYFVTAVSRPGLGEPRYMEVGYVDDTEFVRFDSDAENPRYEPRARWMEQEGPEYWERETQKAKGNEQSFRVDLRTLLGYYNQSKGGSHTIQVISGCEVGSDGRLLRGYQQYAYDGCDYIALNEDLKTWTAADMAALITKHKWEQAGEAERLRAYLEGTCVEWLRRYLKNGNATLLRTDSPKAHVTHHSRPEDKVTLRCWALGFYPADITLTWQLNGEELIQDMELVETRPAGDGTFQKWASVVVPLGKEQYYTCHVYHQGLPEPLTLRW
T1 chain 3: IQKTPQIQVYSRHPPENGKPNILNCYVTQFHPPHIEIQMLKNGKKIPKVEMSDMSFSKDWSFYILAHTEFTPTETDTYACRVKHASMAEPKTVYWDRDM
Nature of the experiment: SPR. Conditions: modification not given, biotin on the biotinylation tag (BirA).

B1: mIgG2a clone 13 (wild-type mIgG2a) (protein)
chain 1: EVLLQQSGPELVKPGASVKIPCKASGYTFTDYYMDWVKQSHGKSLEWIGLINPNNGGTVYNQKFKGKATLTVDKSSSAAYMEVRSLTSEDTAVYYCARKPYTGHPAWFAYWGQGTLVTVSA
chain 2: DIQVTQSSSSFSVSLGDRVTITCKASEDIYNRLAWYQQKPGNAPRLLISGATSLETGVPDRFSGSGSRKDYTLIITSLQTEDVATYYCQQYYAFPLTFGAGTKLELK
The term Kd denotes the concentration at which binding is half-saturated. The koff is a measure of how fast the partners let go of each other. A lower koff goes with slow dissociation. B1 came in with a Kd of 2.5 nM and a koff of 0.00143 s⁻¹.

B2: purified scFv13 (Trp2/H2-K^b TCRm scFv clone 13) (protein)
chain 1: B1 chain 1
chain 2: B1 chain 2
Where the note is “scFv”, B2 yielded a Kd of 8.6 nM and a koff of 0.00121 s⁻¹.

For the origin of these results see paper PMC10344781.
